Test results reported in the supplement of paper PMC10567573.

B1: ETS1 (parent)
chain: FSEPSFITESYQTLHPISSEELLS

Variants of: B1
Assay: protein stability index of a GFP-peptide fusion (GPS, HEK-293T) (PSI 1-6); higher = more stable
Conditions: c terminus: a fixed tail appended
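Note: lentivirally expressed fusions sorted by FACS into six bins by GFP to DsRed ratio, PSI derived from sequencing read proportions per bin multiplied by bin number.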

Compared with I17S, I17F is lower in protein stability index: 2.14 for the first, 1.84 for the second.

Going from I17N to I17K, the protein stability index rises from 2.34 to 2.36.

Going from I17G to I17P, the protein stability index rises from 1.81 to 2.34.

Compared with I17T, I17Q is lower in protein stability index: 2.78 for the first, 2.31 for the second.

First: I17E
Second: I17Y
The protein stability index of the first is higher: 2.39 for the first, 2.03 for the second.

Compared with I17W, I17H is lower in protein stability index: 2.06 for the first, 1.76 for the second.

Compared with I17A, I17C is lower in protein stability index: 2.33 for the first, 1.74 for the second.

First: I17L
Second: I17D
The protein stability index of the first is higher: 2.45 for the first, 2.12 for the second.

First: I17V
Second: I17R
The protein stability index of the first is lower: 2.14 for the first, 2.59 for the second.

Going from I17M to S18Y, the protein stability index rises from 1.78 to 2.24.

First: S18W
Second: S18V
The protein stability index of the first is lower: 1.38 for the first, 2.13 for the second.

First: S18M
Second: S18I
The protein stability index of the first is higher: 2 for the first, 1.83 for the second.

Compared with S18T, S18R is higher in protein stability index: 1.97 for the first, 2.19 for the second.

Going from S18D to S18P, the protein stability index falls from 2.33 to 2.08.

Compared with S18A, S18E is higher in protein stability index: 1.93 for the first, 2.18 for the second.

First: S18H
Second: S18G
The protein stability index of the first is higher: 2.35 for the first, 1.8 for the second.

Compared with S18L, S18N is higher in protein stability index: 1.99 for the first, 2.04 for the second.

First: S18C
Second: S18F
The protein stability index of the first is higher: 2.2 for the first, 1.79 for the second.

First: S18Q
Second: S18K
The protein stability index of the first is higher: 2.3 for the first, 1.49 for the second.

Going from S19V to S19T, the protein stability index rises from 1.84 to 2.21.

Compared with S19H, S19G is higher in protein stability index: 1.94 for the first, 1.99 for the second.

Compared with S19P, S19D is higher in protein stability index: 2.11 for the first, 2.31 for the second.

First: S19E
Second: S19N
The protein stability index of the first is higher: 2.46 for the first, 2.35 for the second.

Compared with S19K, S19A is lower in protein stability index: 1.72 for the first, 1.7 for the second.

Going from S19W to S19I, the protein stability index rises from 2 to 2.13.

Going from S19F to S19M, the protein stability index rises from 1.88 to 2.19.

Compared with S19C, S19Y is lower in protein stability index: 1.78 for the first, 1.7 for the second.

Going from S19R to S19L, the protein stability index falls from 2.24 to 1.81.

Going from S19Q to P16D, the protein stability index falls from 2.21 to 1.81.

Going from P16V to P16Y, the protein stability index falls from 2.16 to 1.67.

Compared with P16R, P16W is lower in protein stability index: 1.69 for the first, 1.17 for the second.

Going from P16I to P16H, the protein stability index rises from 1.6 to 1.81.

Compared with P16M, P16L is higher in protein stability index: 1.47 for the first, 3.29 for the second.

Compared with P16Q, P16T is lower in protein stability index: 2.13 for the first, 1.9 for the second.

First: P16S
Second: P16C
The protein stability index of the first is higher: 2.21 for the first, 2.07 for the second.

First: P16K
Second: P16N
The protein stability index of the first is lower: 1.88 for the first, 1.89 for the second.

First: P16A
Second: P16F
The protein stability index of the first is lower: 1.68 for the first, 2.08 for the second.

Going from P16G to P16E, the protein stability index falls from 2.19 to 1.95.

Going from Q12Y to E20L, the protein stability index rises from 1.56 to 1.95.

First: E20T
Second: E20W
The protein stability index of the first is higher: 2.08 for the first, 1.61 for the second.

Compared with E20Y, E20Q is higher in protein stability index: 1.72 for the first, 2.12 for the second.

First: E20P
Second: E20C
The protein stability index of the first is lower: 1.73 for the first, 1.8 for the second.

First: E20H
Second: E20M
The protein stability index of the first is lower: 2.14 for the first, 2.28 for the second.

Compared with E20F, E20D is lower in protein stability index: 1.77 for the first, 1.63 for the second.

Going from E20N to E20I, the protein stability index rises from 1.7 to 1.78.

Going from E20G to E20K, the protein stability index rises from 1.62 to 1.82.

Compared with E20V, E20A is lower in protein stability index: 2.04 for the first, 1.92 for the second.

Going from E20R to E20S, the protein stability index rises from 2.08 to 2.11.

First: L14W
Second: L14E
The protein stability index of the first is higher: 2.66 for the first, 2.33 for the second.

Going from L14S to L14R, the protein stability index falls from 2.44 to 2.07.

First: L14G
Second: L14N
The protein stability index of the first is higher: 2.19 for the first, 2.08 for the second.

Going from L14Q to L14A, the protein stability index falls from 2.48 to 2.08.

Going from L14V to L14Y, the protein stability index falls from 2.09 to 1.55.

Going from L14I to L14K, the protein stability index rises from 1.94 to 2.19.

Going from L14C to L14T, the protein stability index rises from 1.93 to 2.5.

First: L14F
Second: L14M
The protein stability index of the first is lower: 1.74 for the first, 1.88 for the second.

Compared with L14D, L14P is lower in protein stability index: 2.44 for the first, 2.1 for the second.

Going from L14H to E21N, the protein stability index falls from 2.35 to 1.85.

Going from E21C to E21I, the protein stability index rises from 1.79 to 1.81.

Going from E21L to E21M, the protein stability index rises from 1.93 to 2.1.

Compared with E21F, E21K is lower in protein stability index: 1.99 for the first, 1.84 for the second.

First: E21G
Second: E21Q
The protein stability index of the first is lower: 1.91 for the first, 2.06 for the second.

First: E21A
Second: E21D
The protein stability index of the first is lower: 1.53 for the first, 1.74 for the second.

First: E21P
Second: E21H
The protein stability index of the first is lower: 1.94 for the first, 2.24 for the second.

Compared with E21R, T13M is lower in protein stability index: 1.96 for the first, 1.28 for the second.

Compared with T13H, T13P is higher in protein stability index: 1.62 for the first, 2.11 for the second.

First: T13W
Second: T13E
The protein stability index of the first is higher: 2.54 for the first, 2.07 for the second.

Going from T13N to T13S, the protein stability index rises from 1.68 to 2.35.

Compared with T13D, T13R is lower in protein stability index: 2.23 for the first, 1.61 for the second.

Going from T13C to T13Q, the protein stability index rises from 1.67 to 2.4.

First: T13K
Second: T13A
The protein stability index of the first is lower: 1.93 for the first, 2.16 for the second.

Compared with T13Y, T13L is higher in protein stability index: 1.93 for the first, 1.99 for the second.

Compared with T13V, T13G is lower in protein stability index: 2.21 for the first, 1.9 for the second.

Going from T13I to T13F, the protein stability index falls from 1.93 to 1.53.

First: H15N
Second: H15S
The protein stability index of the first is lower: 1.71 for the first, 1.91 for the second.

First: H15G
Second: H15C
The protein stability index of the first is lower: 1.75 for the first, 2.17 for the second.

Going from H15L to H15D, the protein stability index rises from 1.99 to 2.48.

First: H15P
Second: H15E
The protein stability index of the first is higher: 2.27 for the first, 2.12 for the second.

Going from H15I to H15Q, the protein stability index rises from 2.03 to 2.29.

Compared with H15K, H15T is higher in protein stability index: 2.33 for the first, 2.38 for the second.

Going from H15R to H15F, the protein stability index falls from 2.82 to 1.95.

Compared with H15M, H15Y is lower in protein stability index: 1.96 for the first, 1.51 for the second.

First: H15W
Second: H15V
The protein stability index of the first is lower: 1.67 for the first, 2.49 for the second.

H15A showed a protein stability index of 2.27.
